Biological target: Mac-1 (CD11b/CD18) integrin receptor on primary mouse microglia (mouse) (UniProt P05555)
Assay: cell-based or functional assay

Sequence of Mac-1 (CD11b/CD18) integrin receptor on primary mouse microglia (mouse) (P05555 17-1153, chain 1 of 2): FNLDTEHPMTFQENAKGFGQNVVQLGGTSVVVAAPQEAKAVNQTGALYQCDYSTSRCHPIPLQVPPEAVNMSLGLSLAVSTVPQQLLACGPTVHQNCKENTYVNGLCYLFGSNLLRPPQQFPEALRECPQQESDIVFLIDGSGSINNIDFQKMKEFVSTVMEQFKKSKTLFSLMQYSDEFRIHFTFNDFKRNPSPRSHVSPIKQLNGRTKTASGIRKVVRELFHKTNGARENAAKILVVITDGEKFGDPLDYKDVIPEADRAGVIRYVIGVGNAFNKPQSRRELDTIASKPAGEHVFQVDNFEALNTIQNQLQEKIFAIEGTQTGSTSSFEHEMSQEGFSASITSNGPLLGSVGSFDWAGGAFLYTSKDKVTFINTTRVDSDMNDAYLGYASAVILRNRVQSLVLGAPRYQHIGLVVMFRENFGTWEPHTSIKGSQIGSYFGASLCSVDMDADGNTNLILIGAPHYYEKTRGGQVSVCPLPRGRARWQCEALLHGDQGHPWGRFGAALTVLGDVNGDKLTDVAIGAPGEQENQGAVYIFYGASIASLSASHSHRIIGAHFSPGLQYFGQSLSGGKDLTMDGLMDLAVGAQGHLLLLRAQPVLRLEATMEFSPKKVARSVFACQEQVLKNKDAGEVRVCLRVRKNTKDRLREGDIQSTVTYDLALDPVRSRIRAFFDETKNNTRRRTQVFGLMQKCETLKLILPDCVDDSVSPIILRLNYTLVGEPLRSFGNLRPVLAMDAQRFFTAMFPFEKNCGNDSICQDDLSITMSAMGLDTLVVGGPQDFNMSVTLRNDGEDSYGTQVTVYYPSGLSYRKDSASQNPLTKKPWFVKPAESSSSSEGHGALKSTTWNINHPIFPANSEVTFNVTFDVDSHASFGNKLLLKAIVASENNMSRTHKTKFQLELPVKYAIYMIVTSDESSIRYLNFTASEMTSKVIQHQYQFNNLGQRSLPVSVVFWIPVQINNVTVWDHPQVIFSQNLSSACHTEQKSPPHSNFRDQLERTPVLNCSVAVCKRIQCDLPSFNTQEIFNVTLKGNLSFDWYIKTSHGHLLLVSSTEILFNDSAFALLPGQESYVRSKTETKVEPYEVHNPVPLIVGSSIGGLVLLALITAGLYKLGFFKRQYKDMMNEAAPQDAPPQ
Sequence of Mac-1 (CD11b/CD18) integrin receptor on primary mouse microglia (mouse) (P11835 24-771, chain 2 of 2, further chain): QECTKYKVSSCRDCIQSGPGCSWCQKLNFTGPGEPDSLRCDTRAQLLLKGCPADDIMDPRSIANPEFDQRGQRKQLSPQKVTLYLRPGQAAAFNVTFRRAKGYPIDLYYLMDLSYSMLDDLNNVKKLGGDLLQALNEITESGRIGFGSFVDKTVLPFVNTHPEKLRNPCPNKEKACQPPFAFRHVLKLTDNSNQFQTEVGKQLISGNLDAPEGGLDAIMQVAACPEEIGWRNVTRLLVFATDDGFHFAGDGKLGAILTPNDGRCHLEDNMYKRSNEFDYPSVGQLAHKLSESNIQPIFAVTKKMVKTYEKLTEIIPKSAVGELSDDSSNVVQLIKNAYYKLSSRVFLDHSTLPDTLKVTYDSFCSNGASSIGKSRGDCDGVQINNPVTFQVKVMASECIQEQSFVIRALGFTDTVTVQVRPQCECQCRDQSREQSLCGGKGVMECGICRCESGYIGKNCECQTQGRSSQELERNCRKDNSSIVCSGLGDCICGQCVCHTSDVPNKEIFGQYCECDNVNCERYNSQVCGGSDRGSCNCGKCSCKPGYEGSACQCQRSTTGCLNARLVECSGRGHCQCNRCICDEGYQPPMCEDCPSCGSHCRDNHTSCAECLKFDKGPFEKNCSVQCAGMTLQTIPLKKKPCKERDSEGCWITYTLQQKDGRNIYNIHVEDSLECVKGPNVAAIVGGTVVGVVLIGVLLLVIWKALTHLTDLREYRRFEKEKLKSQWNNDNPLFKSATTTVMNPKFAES

Row | Substance | activated microglia (cells larger than 2,000 um^2), fibrinogen in the presence of M1/70 (% of activated microglia) | phagocytosis of fibrinogen-treated microglia | Akt phosphorylation in microglia (Western blot) | activated microglia (cells larger than 2,000 um^2), fibrinogen treated cells (% of activated microglia) | activated microglia, fibrinogen treatment (% of activated microglia) | active RhoA in microglia (GST-Rhotekin pull-down, Western blot)
1 | M1/70, rat anti-CD11b neutralizing antibody | 18 | 40 % reduction | – | – | – | –
2 | fibrinogen (Calbiochem), immobilized on tissue culture dishes (ligand) | – | – | 24 fold | 71 | 71 | 1.9 fold

From patent US20110166075A1
